# Results reported in PMC5639704.
# Target: Human TRF2^TRFH (residues 42-245) (human)
# Experiment: ITC
row,Kd [µM],Substance
1,17,WT hNBS1 peptide (423–438) (from UniProt O60934 423-438)
2,19.8,WT mNBS1 peptide
3,16,hNBS1^S432A peptide (423–438) (from UniProt O60934 423-438)
4,21.7,mNBS1^S433A peptide
